Results from PMC5931534.

Columns and labels:
calmodulin (CaM) [1] = target: calmodulin (CaM) (UniProt P62157); assay: ELISA; 96-well MaxiSorp plates coated with 1 ug CaM at 4 C overnight, blocked with 4% BSA; 80 ng DAPK2 for 15 min at 30 C; detected with anti-DAPK2 antibody, HRP secondary and ABTS
calmodulin (CaM) [2] = target: calmodulin (CaM) (UniProt P62157)

Sequence of FLAG-DAPK2 S289D (Q9UIK4 whole entry, stated change not applied): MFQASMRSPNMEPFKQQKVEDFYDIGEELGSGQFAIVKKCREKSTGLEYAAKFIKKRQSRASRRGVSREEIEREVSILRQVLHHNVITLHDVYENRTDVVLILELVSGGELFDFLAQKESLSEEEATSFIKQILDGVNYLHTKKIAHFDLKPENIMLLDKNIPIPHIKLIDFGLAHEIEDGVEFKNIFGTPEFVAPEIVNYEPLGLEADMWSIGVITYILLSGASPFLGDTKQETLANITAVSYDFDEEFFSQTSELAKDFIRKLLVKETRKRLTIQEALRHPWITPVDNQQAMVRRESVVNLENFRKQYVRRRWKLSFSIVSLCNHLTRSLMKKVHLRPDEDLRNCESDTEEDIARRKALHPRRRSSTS
Sequence of FLAG-DAPK2 S289A (Q9UIK4 whole entry, stated change not applied): as above

“DAPK2 S289D (ELISA CaM binding assay) (from UniProt Q9UIK4-1 1-370) (enzyme)” was tested, and the fold lower ELISA signal than DAPK2 WT (calmodulin (CaM) [1]) was 5 fold.
With “FLAG-DAPK2 S289A (from UniProt Q9UIK4-1 1-370) (enzyme)” the fold induction of the catalytic activity (MLC phosphorylation, in vitro kinase assay) upon addition of Ca2+/CaM against EGTA (calmodulin (CaM) [2]) was 5.4 fold.
In the case of “FLAG-DAPK2 S289D (from UniProt Q9UIK4-1 1-370) (enzyme)”, the fold induction of the catalytic activity (MLC phosphorylation, in vitro kinase assay) upon addition of Ca2+/CaM against EGTA (calmodulin (CaM) [2]) is reported as 1.6 fold.
